Target: CLAG3-tv2 (CLAG3h with C-terminal His10-FLAG-thrombin-TEV-HA-twinstrept-BC2 multi-tag) (Plasmodium falciparum)
Test: native MS; endogenous RhopH complex purified via CLAG3-tv2 (FLAG, then Ni-NTA), exchanged into 200 mM ammonium acetate pH 7.5, 0.01% Tween-20; Exactive Plus EMR

Substance	stoichiometry N
RhopH2 (from UniProt C0H571 20-1378) (natural protein)	1
RhopH3 (from UniProt Q8I395 25-897) (natural protein)	1
